# Results from patent publication US20220289850 (published 2022).
# Values joined by “and” are separate entries in the source; they are usually repeats but may differ in a detail not shown here. Equal entries are not always repeated.
# T1: human integrin avb8 (human)
# T1 chain 1: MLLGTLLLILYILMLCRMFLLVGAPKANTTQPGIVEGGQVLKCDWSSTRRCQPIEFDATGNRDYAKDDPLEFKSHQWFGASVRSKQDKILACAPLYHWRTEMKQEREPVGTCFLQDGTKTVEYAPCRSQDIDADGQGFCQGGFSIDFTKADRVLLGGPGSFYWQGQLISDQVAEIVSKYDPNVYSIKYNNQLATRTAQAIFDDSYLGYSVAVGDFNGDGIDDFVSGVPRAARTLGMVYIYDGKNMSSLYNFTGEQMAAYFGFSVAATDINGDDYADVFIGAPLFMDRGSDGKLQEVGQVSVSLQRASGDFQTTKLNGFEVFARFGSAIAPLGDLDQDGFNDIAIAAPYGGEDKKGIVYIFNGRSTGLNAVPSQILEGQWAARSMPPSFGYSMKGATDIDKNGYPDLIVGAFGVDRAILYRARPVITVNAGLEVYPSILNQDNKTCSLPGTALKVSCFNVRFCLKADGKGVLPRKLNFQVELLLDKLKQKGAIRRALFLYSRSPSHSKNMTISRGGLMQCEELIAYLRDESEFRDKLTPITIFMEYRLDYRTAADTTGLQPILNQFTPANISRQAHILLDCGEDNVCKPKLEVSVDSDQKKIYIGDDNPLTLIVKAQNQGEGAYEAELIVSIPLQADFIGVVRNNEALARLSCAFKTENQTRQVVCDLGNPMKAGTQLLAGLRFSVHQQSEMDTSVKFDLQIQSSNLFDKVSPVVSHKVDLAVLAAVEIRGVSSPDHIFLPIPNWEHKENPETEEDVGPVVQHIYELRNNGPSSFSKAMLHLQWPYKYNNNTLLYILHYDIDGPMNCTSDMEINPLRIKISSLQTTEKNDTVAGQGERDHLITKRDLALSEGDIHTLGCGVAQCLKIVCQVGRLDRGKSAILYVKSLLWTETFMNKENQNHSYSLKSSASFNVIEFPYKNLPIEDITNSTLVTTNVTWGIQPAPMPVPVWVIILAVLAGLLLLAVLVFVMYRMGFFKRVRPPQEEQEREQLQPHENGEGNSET
# T1 chain 2: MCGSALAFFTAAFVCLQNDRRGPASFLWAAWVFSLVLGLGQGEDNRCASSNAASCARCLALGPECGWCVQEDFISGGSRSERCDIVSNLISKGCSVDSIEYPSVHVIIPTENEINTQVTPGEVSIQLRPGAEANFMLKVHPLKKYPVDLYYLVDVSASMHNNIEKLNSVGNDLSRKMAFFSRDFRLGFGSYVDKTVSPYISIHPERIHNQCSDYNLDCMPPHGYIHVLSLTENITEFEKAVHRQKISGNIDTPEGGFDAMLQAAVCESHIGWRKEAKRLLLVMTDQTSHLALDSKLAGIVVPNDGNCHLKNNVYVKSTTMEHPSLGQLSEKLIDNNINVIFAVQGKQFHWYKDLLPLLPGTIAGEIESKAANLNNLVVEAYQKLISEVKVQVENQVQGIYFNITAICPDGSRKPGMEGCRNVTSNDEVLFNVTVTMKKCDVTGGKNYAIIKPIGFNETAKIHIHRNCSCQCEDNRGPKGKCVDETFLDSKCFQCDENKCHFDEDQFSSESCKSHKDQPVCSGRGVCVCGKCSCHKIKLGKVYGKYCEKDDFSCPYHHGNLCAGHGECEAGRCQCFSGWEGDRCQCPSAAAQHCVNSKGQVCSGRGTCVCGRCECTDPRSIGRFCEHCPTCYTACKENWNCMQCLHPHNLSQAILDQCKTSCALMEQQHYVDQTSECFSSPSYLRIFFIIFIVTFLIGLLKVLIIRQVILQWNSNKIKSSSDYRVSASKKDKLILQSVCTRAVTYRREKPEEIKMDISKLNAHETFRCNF
# Target: T1, human integrin avb8
# Assay: SPR 25C
row,Kd,Binder
1,0.536 nM,"Mouse hybridoma ADWA-11 Fab (antibody, V domains shown) VH: EVQLQQSGAELVRPGAFVKLSCKASGFNIKDYYMNWVLQRPEQGLEWIGWIDPDNGNTIYDPKFQGKASITADTSSNTAYLQLSSLTSEDTAVYYCARRLLMDYWGQGTSVTVSS VL: DIVMTQAAPSVPVTPGESVSISCRSTKSLLHFNGNTYLFWFLQRPGQSPQRLIYYMSNLASGVPDRFSGRGSGTDFTLRISRVEAEDVGVYYCMQSLEYPFTFGTGTKLEIK"
2,0.209 nM and 0.118 nM,"ADWA11 VH05/VK01 (VH05-2_VK01) Fab (antibody, V domains shown) VH: EVQLVESGGGLVQPGGSLRLSCAASGFNIKDYYMNWVRQAPGKGLEWVGWIDPDNGNTIYDPKFQGRFTISADTSKNSAYLQMNSLRAEDTAVYYCARRLLMDYWGQGTLVTVSS VL: DIQMTQSPSSLSASVGDRVTITCRSTKSLLHFNGNTYLFWYQQKPGKAPKRLIYYMSNLASGVPSRFSGSGSGTDFTLTISSLQPEDFATYYCMQSLEYPFTFGQGTKVEIK"
3,< 0.2 nM,"ADWA11 2.4 Fab (antibody, V domains shown) VH: EVQLVESGGGLVQPGGSLRLSCAASGFNIKDYYMNWVRQAPGKGLEWVGWIDPDQGNTIYEPKFQGRFTISADTSKNSAYLQMNSLRAEDTAVYYCARRLLMDYWGQGTLVTVSS VL: DIQMTQSPSSLSASVGDRVTITCRSTKSLSHFNGNTYLFWYQQKPGKAPKRLIYYMSSLASGVPSRFSGSGSGTDFTLTISSLQPEDFATYYCQQSLEYPFTFGGGTKVEIK"
